Results on 3 molecules are retold here after patent publication US20070122429A1 (published 2007).

The target of test [1] is HIV-1 HXB2 Env (gp41 N-trimer region) (HIV-1 HXB2, UniProt P04578 33-856). In words: cell-based or functional assay.
The target of test [2] is HIV-1 JRFL Env (gp41 N-trimer region) (HIV-1 JRFL). The test can be described thus: cell-based or functional assay.
The target in the test “IZN36 (biotinylated …)” is T1, IZN36 (biotinylated Cys-Gly-Gly-Asp-IZN36, His tag removed).
T1 construct: also called biotinylated IZN36
The test can be described thus: SPR, immobilised IZN36; compared with MBP-C37. (In general: In SPR one partner is held on a chip, and binding of the other changes the refractive index at the surface.)

Take SSSSSGGHTTWMEWDREINNYTSLIHSLIEESQNQQEKNEQELLHHHHHH (other) [MBP-C37]: in test [1], the “IC50, cell-cell fusion (HXB2 Env)” value is 192 nM; the “IC50, viral infectivity HXB2” value stood at 206 nM; the “IC50 ratio (cell-cell fusion), relative to C37” value worked out at 225; the “IC50 ratio HXB2 (viral infectivity), relative to C37” value turned out to be 74.8. Also, in test [2], the “IC50, viral infectivity JRFL” value came to 1870 nM and the “IC50 ratio JRFL (viral infectivity), relative to C37” value was 228.

B1: MBP2-C37 (other)
chain: SSSGGGSGGGSGGGSSGGGSGGGSGGGSSSSGGHTTWMEWDREINNYTSLIHSLIEESQNQQEKNEQELLHHHHHH
notes: domain: C-peptide (C37)
On to B1, for which the “IC50, viral infectivity HXB2” value in test [1] was 79.2 nM. Besides, the “IC50, viral infectivity JRFL” value in test [2] is 516 nM. Further, in the test with IZN36 (biotinylated …), the “KD difference from MBP-C37” value was below 20%.

B2: MBP1-C37 (other)
chain: SSSGGGSGGGSGGGSSSSGGHTTWMEWDREINNYTSLIHSLIEESQNQQEKNEQELLHHHHHH
notes: domain: C-peptide (C37)
Turning to B2, the “IC50, viral infectivity HXB2” value in test [1] worked out at 88.9 nM. The “IC50, viral infectivity JRFL” value in test [2] worked out at 640 nM. For the same molecule, in the test with IZN36 (biotinylated …), the “KD difference from MBP-C37” value is below 20%.
